Measured values: patent US20240254200A1 (APITBIO, published 2024)

Tests used:
[1] = target: T1, GST-preS1(1-56)-strep of HBV genotype C (hepatitis B virus genotype C, UniProt P08515 1-218 = GST); experiment: indirect ELISA, genotype C GST-preS1(1-56)-strep coated (100 ng), antibody from culture supernatant, anti-human IgG Fc-HRP
T1 construct: Expressed in E. coli; also called wild type preS1 antigen; recombinant preS1 of genotype C; not shown: strep tag

[2] = target: T2, GST-preS1(1-56)-strep of HBV genotype A (hepatitis B virus genotype A, UniProt P08515 1-218 = GST); experiment: indirect ELISA, genotype A GST-preS1(1-56)-strep (NPLGFFP) coated, serially diluted antibody
T2 construct: Expressed in E. coli; also called recombinant preS1 of HBV genotype A; preS1 antigen of genotype A; not shown: strep tag

[3] = target: T2, GST-preS1(1-56)-strep of HBV genotype A; experiment: BLI (Octet RED384), antibody captured on anti-human Fc tips, antigen 25-1.5625 nM in solution, 1:1 model
[4] = target: T1, GST-preS1(1-56)-strep of HBV genotype C; experiment: indirect ELISA, GST-preS1(1-56)-strep coated, serially diluted AbS0, anti-human IgG Fc-HRP
[5] = target: T2, GST-preS1(1-56)-strep of HBV genotype A; experiment: as above
[6] = target: T3, GST-preS1(1-56)-strep of HBV genotype B (hepatitis B virus genotype B, UniProt P08515 1-218 = GST); experiment: as above
T3 construct: Expressed in E. coli; also called recombinant preS1 of genotype B; not shown: strep tag

[7] = target: T4, GST-preS1(1-56)-strep of HBV genotype D (hepatitis B virus genotype D, UniProt P08515 1-218 = GST); experiment: as above
T4 construct: Expressed in E. coli; also called recombinant preS1 of genotype D; not shown: strep tag

[8] = target: T5, L1CAM on the human ovarian cancer cell line SKOV3 (human, UniProt P32004 20-1257); experiment: flow cytometry on SKOV3 cells, anti-human IgG Fc-FITC
T5 construct: whole, on cells; The cells express L1CAM but not preS1; also called SKOV3 cells

BSA = target: T6, BSA (Bos taurus, UniProt P02769); experiment: indirect ELISA of monoclonal Fab phage on coated antigen, anti-M13-HRP
T6 construct: control antigen of the phage ELISA; also called bovine serum albumin
T6 sequence (P02769 25-607 limits assumed): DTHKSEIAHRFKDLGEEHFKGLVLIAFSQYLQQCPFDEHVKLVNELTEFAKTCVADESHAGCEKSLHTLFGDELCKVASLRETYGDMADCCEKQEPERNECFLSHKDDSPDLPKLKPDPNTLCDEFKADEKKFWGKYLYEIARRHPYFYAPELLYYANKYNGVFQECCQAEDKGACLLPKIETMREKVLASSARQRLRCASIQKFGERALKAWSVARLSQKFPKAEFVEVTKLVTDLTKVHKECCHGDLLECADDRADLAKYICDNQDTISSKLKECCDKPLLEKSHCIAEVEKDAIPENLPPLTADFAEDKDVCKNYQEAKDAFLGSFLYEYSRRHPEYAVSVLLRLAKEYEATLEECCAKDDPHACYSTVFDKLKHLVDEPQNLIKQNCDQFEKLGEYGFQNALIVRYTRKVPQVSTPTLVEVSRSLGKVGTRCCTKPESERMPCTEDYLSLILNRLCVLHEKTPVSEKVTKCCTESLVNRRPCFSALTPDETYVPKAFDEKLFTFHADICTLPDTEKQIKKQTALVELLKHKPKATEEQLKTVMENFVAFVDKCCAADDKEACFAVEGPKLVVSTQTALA

T2 sequence (P08515 whole entry): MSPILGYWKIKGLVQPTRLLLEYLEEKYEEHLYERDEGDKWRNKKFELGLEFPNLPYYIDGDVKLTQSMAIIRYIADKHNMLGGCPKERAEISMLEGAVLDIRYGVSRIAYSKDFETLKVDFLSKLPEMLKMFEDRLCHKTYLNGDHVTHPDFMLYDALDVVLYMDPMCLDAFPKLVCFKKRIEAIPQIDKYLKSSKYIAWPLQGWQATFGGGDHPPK
T1 sequence (P08515 whole entry): as above
T3 sequence (P08515 whole entry): as above
T4 sequence (P08515 whole entry): as above
T5 sequence (P32004 20-1257): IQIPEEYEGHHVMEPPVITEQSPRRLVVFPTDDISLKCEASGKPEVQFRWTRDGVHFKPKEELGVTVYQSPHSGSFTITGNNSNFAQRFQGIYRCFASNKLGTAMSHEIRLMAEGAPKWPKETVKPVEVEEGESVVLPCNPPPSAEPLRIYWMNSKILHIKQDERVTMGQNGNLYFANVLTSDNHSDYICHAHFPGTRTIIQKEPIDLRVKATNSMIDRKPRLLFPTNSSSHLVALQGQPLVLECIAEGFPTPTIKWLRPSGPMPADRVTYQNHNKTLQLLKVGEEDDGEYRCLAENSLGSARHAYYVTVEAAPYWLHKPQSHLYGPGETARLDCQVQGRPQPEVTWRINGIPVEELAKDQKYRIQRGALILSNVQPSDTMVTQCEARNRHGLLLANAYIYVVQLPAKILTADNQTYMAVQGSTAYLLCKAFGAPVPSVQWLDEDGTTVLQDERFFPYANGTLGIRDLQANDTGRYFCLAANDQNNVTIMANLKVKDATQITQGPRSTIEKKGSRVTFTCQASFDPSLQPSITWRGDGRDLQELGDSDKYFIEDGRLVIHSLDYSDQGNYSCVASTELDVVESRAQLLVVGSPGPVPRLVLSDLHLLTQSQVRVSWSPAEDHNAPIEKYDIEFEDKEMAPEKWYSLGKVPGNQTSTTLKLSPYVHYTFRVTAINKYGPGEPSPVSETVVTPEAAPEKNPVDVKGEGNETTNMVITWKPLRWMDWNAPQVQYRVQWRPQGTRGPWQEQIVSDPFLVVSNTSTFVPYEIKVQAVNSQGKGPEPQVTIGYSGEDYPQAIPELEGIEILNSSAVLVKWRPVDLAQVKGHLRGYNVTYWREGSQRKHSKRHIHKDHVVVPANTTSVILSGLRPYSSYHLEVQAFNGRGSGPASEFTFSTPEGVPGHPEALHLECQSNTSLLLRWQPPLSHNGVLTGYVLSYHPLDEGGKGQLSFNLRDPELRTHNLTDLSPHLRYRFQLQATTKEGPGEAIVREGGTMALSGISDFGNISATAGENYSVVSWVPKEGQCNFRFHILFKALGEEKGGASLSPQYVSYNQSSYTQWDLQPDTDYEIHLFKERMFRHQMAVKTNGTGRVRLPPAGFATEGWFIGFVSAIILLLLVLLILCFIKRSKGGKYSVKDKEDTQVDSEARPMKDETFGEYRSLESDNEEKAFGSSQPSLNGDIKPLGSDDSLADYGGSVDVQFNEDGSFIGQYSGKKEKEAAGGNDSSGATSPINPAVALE

B1: AbS0 antibody (AbS0 Fab converted into human IgG1) (antibody, V domains shown)
VH: EVQLVESGGGLVQPGGSLRLSCAASGFTFSTYAMSWVRQAPGKGLEWVSSISQSGGYTNYADSVKGRFTISRDNSKNTLYLQMNSLRAEDTAVYYCAKVIYASLDYWGQGTLVTVSS
VL: DIQMTQSPSSLSASVGDRVTITCRASQSIASYLNWYQQKPGKAPKLLIYATSRLQSGVPSRFSGSGSGTDFTLTISSLQPEDFATYYCQQSYSSPYTFGQGTKVEIK
notes: also called AbS0 mAb; wild type AbS0
- EC50 (read off the curve) [1]: ~0.003 µg/mL
- EC50 (read off the curve) [2]: ~0.06 µg/mL
- Kd [3]: 500 pM
- koff [3]: 0.000194 s⁻¹
- kon [3]: 392000 M⁻¹ s⁻¹
- EC50 (read off the curve) [4]: ~0.04 µg/mL
- EC50 (read off the curve) [5]: ~0.04 µg/mL
- EC50 (read off the curve) [6]: ~0.04 µg/mL
- EC50 (read off the curve) [7]: ~0.04 µg/mL
- binding result [8]: no binding

B2: AbS0 Fab phage (Fab, V domains shown)
VH: B1 VH
VL: B1 VL
- binding result (BSA): no binding
